Starred links: 1 amine or outer side, 2 acyl side, 3 side chain; linkers in the order of their positions; H or OH if unused. Non-standard residues stand in square brackets, D forms with d. Tyr(Bzl) = Obtyr, O-benzyl-L-tyrosine, O=C([C@H](Cc1ccc(OCc2ccccc2)cc1)N[*:1])[*:2]; Tyr(Et) = Oetyr, O-ethyl-L-tyrosine, CCOc1ccc(C[C@H](N[*:1])C(=O)[*:2])cc1; Oetyr = O-ethyl-L-tyrosine, CCOc1ccc(C[C@H](N[*:1])C(=O)[*:2])cc1; 1Nal = N[C@@H](Cc1cccc2ccccc12)C(=O)O; 2Nal = N[C@@H](Cc1ccc2ccccc2c1)C(=O)O

The record followed here is patent US20260193293A1, “PEPTIDES CAPABLE OF INHIBITING PROTEIN-PROTEIN INTERACTIONS AT GABAB1A SUBUNIT AND USES THEREOF” (UNIVERSITY OF COPENHAGEN, priority 2022, published 2026).

B1: peptide 34 (peptide)
peptide: Ac-EDDD[Oetyr]IDWGPTSDDD-NH2
SMILES: CCOc1ccc(C[C@H](NC(=O)[C@H](CC(=O)O)NC(=O)[C@H](CC(=O)O)NC(=O)[C@H](CC(=O)O)NC(=O)[C@H](CCC(=O)O)NC(C)=O)C(=O)N[C@H](C(=O)N[C@@H](CC(=O)O)C(=O)N[C@@H](Cc2c[nH]c3ccccc23)C(=O)NCC(=O)N2CCC[C@H]2C(=O)N[C@H](C(=O)N[C@@H](CO)C(=O)N[C@@H](CC(=O)O)C(=O)N[C@@H](CC(=O)O)C(=O)N[C@@H](CC(=O)O)C(N)=O)[C@@H](C)O)[C@@H](C)CC)cc1
B2: peptide 32 (peptide)
peptide: Ac-EDDD[Oetyr]IDWYDSDDD-NH2
SMILES: CCOc1ccc(C[C@H](NC(=O)[C@H](CC(=O)O)NC(=O)[C@H](CC(=O)O)NC(=O)[C@H](CC(=O)O)NC(=O)[C@H](CCC(=O)O)NC(C)=O)C(=O)N[C@H](C(=O)N[C@@H](CC(=O)O)C(=O)N[C@@H](Cc2c[nH]c3ccccc23)C(=O)N[C@@H](Cc2ccc(O)cc2)C(=O)N[C@@H](CC(=O)O)C(=O)N[C@@H](CO)C(=O)N[C@@H](CC(=O)O)C(=O)N[C@@H](CC(=O)O)C(=O)N[C@@H](CC(=O)O)C(N)=O)[C@@H](C)CC)cc1
B3: EDDSDVWW(1Nala)GADTD (peptide)
peptide: Ac-EDDSDVWW[1Nal]GADTD-NH2
SMILES: CC(=O)N[C@@H](CCC(=O)O)C(=O)N[C@@H](CC(=O)O)C(=O)N[C@@H](CC(=O)O)C(=O)N[C@@H](CO)C(=O)N[C@@H](CC(=O)O)C(=O)N[C@H](C(=O)N[C@@H](Cc1c[nH]c2ccccc12)C(=O)N[C@@H](Cc1c[nH]c2ccccc12)C(=O)N[C@@H](Cc1cccc2ccccc12)C(=O)NCC(=O)N[C@@H](C)C(=O)N[C@@H](CC(=O)O)C(=O)N[C@H](C(=O)N[C@@H](CC(=O)O)C(N)=O)[C@@H](C)O)C(C)C
B4: EDDS(2Nala)… (peptide)
peptide: Ac-EDDS[2Nal]VWWGGADTD-NH2
SMILES: CC(=O)N[C@@H](CCC(=O)O)C(=O)N[C@@H](CC(=O)O)C(=O)N[C@@H](CC(=O)O)C(=O)N[C@@H](CO)C(=O)N[C@@H](Cc1ccc2ccccc2c1)C(=O)N[C@H](C(=O)N[C@@H](Cc1c[nH]c2ccccc12)C(=O)N[C@@H](Cc1c[nH]c2ccccc12)C(=O)NCC(=O)NCC(=O)N[C@@H](C)C(=O)N[C@@H](CC(=O)O)C(=O)N[C@H](C(=O)N[C@@H](CC(=O)O)C(N)=O)[C@@H](C)O)C(C)C
B5: EDDS(Oetyr)… (peptide)
peptide: Ac-EDDS[Tyr(Et)]VWWGGADTD-NH2
SMILES: CCOc1ccc(C[C@H](NC(=O)[C@H](CO)NC(=O)[C@H](CC(=O)O)NC(=O)[C@H](CC(=O)O)NC(=O)[C@H](CCC(=O)O)NC(C)=O)C(=O)N[C@H](C(=O)N[C@@H](Cc2c[nH]c3ccccc23)C(=O)N[C@@H](Cc2c[nH]c3ccccc23)C(=O)NCC(=O)NCC(=O)N[C@@H](C)C(=O)N[C@@H](CC(=O)O)C(=O)N[C@H](C(=O)N[C@@H](CC(=O)O)C(N)=O)[C@@H](C)O)C(C)C)cc1
B6: EDDS(Obtyr)… (peptide)
peptide: Ac-EDDS[Tyr(Bzl)]VWWGGADTD-NH2
SMILES: CC(=O)N[C@@H](CCC(=O)O)C(=O)N[C@@H](CC(=O)O)C(=O)N[C@@H](CC(=O)O)C(=O)N[C@@H](CO)C(=O)N[C@@H](Cc1ccc(OCc2ccccc2)cc1)C(=O)N[C@H](C(=O)N[C@@H](Cc1c[nH]c2ccccc12)C(=O)N[C@@H](Cc1c[nH]c2ccccc12)C(=O)NCC(=O)NCC(=O)N[C@@H](C)C(=O)N[C@@H](CC(=O)O)C(=O)N[C@H](C(=O)N[C@@H](CC(=O)O)C(N)=O)[C@@H](C)O)C(C)C

Sequence of Sushi domains (SD1/2) protein of the GABAB1a (GB1a) subunit, recombinant (Q9Z0U4 29-158): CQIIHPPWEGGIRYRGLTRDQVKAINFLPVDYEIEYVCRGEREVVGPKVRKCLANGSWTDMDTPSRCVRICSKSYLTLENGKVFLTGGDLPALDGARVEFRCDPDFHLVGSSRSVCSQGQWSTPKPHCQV

The target of one experiment is Sushi domains (SD1/2) protein of GABAB1a (GB1a). The experiment can be described thus: FP competition vs TAMRA AJAP-1probe.
Sequence of Sushi domains (SD1/2) protein of GABAB1a (GB1a) (Q9Z0U4 29-158): as above
B1 returned an inhibitory constant (Ki) of 6.5 nM.
Still for that read-out and setting: for B2 the value was 5.3 nM; for B3, 114 nM.
On the same count and under the same terms, to B4 belongs 43 nM; to B5, 46 nM.
B6 gave an inhibition constant (Ki) of 28 nM.

The next experiment addresses Sushi domains (SD1/2) protein of the GABAB1a (GB1a) subunit, recombinant. Briefly: FP competition.
With B3, the inhibition constant (Ki) worked out at 100 nM.
As to B4, the fold increased affinity compared to Asp207Trp is 2 fold.
Take B5: the Ki is 46.3 nM and the fold increased affinity compared to Asp207Trp was found to be 2 fold.
On the same counts, the results for B6 are 27.1 nM and 4 fold.

Usually Ki stands for a dissociation constant, usually derived from enzyme kinetics or from competition with a known ligand.
